According to the supplement of paper PMC9170038:

Test system: MS2 coat protein
Assay: apparent KD of MS2 coat protein; designed switch direction (-1 OFF switch, 1 ON switch): -1; higher = weaker reporter binding
Procedure, shortened: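 Normalised cluster fluorescence was curve-fitted, and each design's median over clusters is its apparent KD. Before this, SNAP-549-labelled MS2 coat protein was titrated from 0.7 or 1.5 nM, doubling to 3 µM, over RNA switches transcribed on Illumina chips by stalled E. coli RNA polymerase. Titrations had no input, 200 uM small-molecule ligand, or an oligonucleotide input, and steps lasted 0.8–1.5 h (lowest) to 10–20 min (highest).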

[1] = Eterna round: R95, input ligand: microRNA oligo, concentration not stated
[2] = input ligand: microRNA oligo, concentration not stated
[3] = Eterna round: R95, input ligand: FMN 200 uM
[4] = Eterna round: R95, input ligand: none

| Sequence | apparent KD of MS2 coat protein (input ligand: FMN 200 uM) | apparent KD of MS2 coat protein (input ligand: none) | apparent KD of MS2 coat protein [1] | other results |
| --- | --- | --- | --- | --- |
| ACGUGGUGAGGAUAUGCACAAUACAAGAGUGUCAGAUCCGGACAUGAGGAUCACCCAUGUAGAAGGCACCCAAU [Eternabot (Original) Solution 10] (Eterna round: R97, puzzle: Exclusion 2) | 41 nM | 50.8 nM |  |  |
| AGUCCUGGAGUUAGGAUAUGGAGUAUCGCUGCGCUUCAGAAGGGACUUGAGGAUCACCCAAGUAGCCGUGAGGG [salish99_bmod_ex4_r4_006] (Eterna round: R97, puzzle: Brourd's mod of Exclusion 4) | 82.9 nM | 60.2 nM |  |  |
| UUCCUCGUUGUGAGGAUAUCGUCCGGGUUUUGUUACGAGAAGGCACAUGAGGAUCACCCAUGUUACUUGAUGUU [JR_BMOE4_Sub072] (puzzle: Brourd's mod of Exclusion 4) |  |  | 20 nM |  |
| CCAUGGGAGCGAGGAUAUAGCCCAUGGGAAGAGCUAGAAGGCGCAGACAUGAGGAUCACCCAUGUGUUCAUGAGGAGGUGGACA (Eterna round: R96, puzzle: Exclusion NG 1) | 95.5 nM | 73.7 nM |  | apparent KD of MS2 coat protein [2]: 47.9 nM |
| UUUAAACAUGAGGAUCACCCAUGUUAGGAUAUACGCAUGCAGACACACACGGAUGCAAGUAGAAGGAACCAUGC [Design #7] (Eterna round: R97, puzzle: Exclusion 1) | 23.6 nM | 22.9 nM |  |  |
| UUGCUUUCUUAGUACUCUACAAGUUUUUUGUUCGUUUUAACAUGAGGAUCACCCAUGUCUAGUGGAUCUGAUCGGGU [JL ViennaUCT Isreen mod 6] (puzzle: Sensor v3, turn-off variant 2) |  |  | 263 nM | apparent KD of MS2 coat protein [3]: 146 nM; apparent KD of MS2 coat protein [4]: 173 nM |
| AAUUAUUUAUGAGGAUAUUGUGGUGAAACACCACAAGAAGGCAUGAUACACAUGAGGAUCACCCAUGUGAGCCUGAUGCUUAUG [Ex NG1 #54] (Eterna round: R96, puzzle: Exclusion NG 1) |  |  |  | apparent KD of MS2 coat protein [2]: 13.7 nM |
| UUUAGUUCAGGAUAUGAUGAAUUAAACAUGAGGAUCACCCAUGUAGAUCCUGAAUUAACAUCAGAAGGGAACAUUU [JL-ex5-4.48 Brourd mod] (Eterna round: R97, puzzle: Exclusion 5) | 41.8 nM | 15 nM |  |  |
| UAAAGACAUGAGGAUCACCCAUGUAAGGAUAUCGCCUGCGGUGGCGCCAGCCAUUAGGCGAGAAGGUGCGGUGA [Eternabot (L1) Solution 14] (Eterna round: R97, puzzle: Exclusion 1) | 326 nM | 417 nM |  |  |
| AUUGAUGUUGAGGAUAUGCUUUUAUUUAUAAUAGCAGAAGGCGAUACAUGAGGAUCACCCAUGUUCAUGGUUUU [JR_E6_Sub096] (puzzle: Exclusion 6) |  |  | 24.5 nM |  |
| AAAUACAAGCAAAGAUCUUACAUGAGGAUCACCCAUGUGCUCGUUUUAUAAAGUACUAUCACGAAAGUGAUAGUACA [Sensor 3, v1 - 31] (puzzle: Sensor v3, turn-off variant 1) |  |  | 93.4 nM | apparent KD of MS2 coat protein [3]: 25 nM; apparent KD of MS2 coat protein [4]: 28.3 nM |
| AGAGUAGGCAUAGGAUAUCCGAAAGGAAGUGUAGGAGAAGGAUGUCGAGACAUGAGGAUCACCCAUGUGAUGCUUAGUCGAAAG [PowerStrip EXNG 1.18] (Eterna round: R96, puzzle: Exclusion NG 1) | 359 nM | 50.8 nM |  | apparent KD of MS2 coat protein [2]: 61.1 nM |
| GGUGGACAUGAGGAUCACCCAUGUGAGGAUAUCGGCCGGUUCGCGGUGGCUGGCGUCUCGAGAAGGCACAUAGU [Exclusion 1 V72] (puzzle: Exclusion 1) |  |  | 86.4 nM |  |
| CGCAAAAGAGGAUAUACAUGAGGAUCACCCAUGUUUUCUCUUCAUAACGGAAACUCGUGUAGAAGGCUUGUGCG [EX3 C.18] (Eterna round: R97, puzzle: Exclusion 3) | 94.4 nM | 103 nM |  |  |
| AGUUGGCGAGGAUAUACAUGAGGAUCACCCAUGUGAAUAAUAAUAGUGAGGAAGAAAAGUAGAAGGCGCUGACA [Mat - Exclusion 3 - Mod of Salish D35] (puzzle: Exclusion 3) |  |  | 46.1 nM |  |
| AACAUGGCAGAGGAUAUAGGACGCUGGCAUAAACUAGAAGGCUGCACAUGAGGAUCACCCAUGUGUUCCAAAAC [Atquisuson] (Eterna round: R97, puzzle: Exclusion 6) | 38.6 nM | 22.6 nM |  |  |
| UCACGGGACUGAGGAUAUACAUUUAUUAUUUUUGUAGAAGGCAGAAUGUUAGUUUUUUCACUAUACAUGAGGAUCACCCAUGUU [JR_ExcNG1_Sub084] (Eterna round: R96, puzzle: Exclusion NG 1) |  |  |  | apparent KD of MS2 coat protein [2]: 20.6 nM |
| CCAUGUUAGCAGGAUAUGCCAUUAUUCCUUUACGCAGAAGGGCUUACAUGAGGAUCACCCAUGUAACAUUUCAU [JR_E6_Sub083] (puzzle: Exclusion 6) |  |  | 14.1 nM |  |
| GACUUCUGAGGAUAUACAUAGAUUUACAUGAGGAUCACCCAUGUUCCUCUAUGUAUAAAUGUAGAAGGCAGAAGAA [Mat - Exclusion 5 - JL Mod - D64] (Eterna round: R97, puzzle: Exclusion 5) | 66.8 nM | 15.5 nM |  |  |
| AAGAACUGAGGAUAUGCAAAAGGGAAAGCUGAUCCUCAUCUACAUGAGGAUCACCCAUGUAGAAGGCGGGAAAU [Aveerve] (Eterna round: R96, puzzle: Exclusion 2) | 108 nM | 74 nM |  | apparent KD of MS2 coat protein [2]: 50.7 nM |
| UGGUGUGAAGGAUAUACAUGAGGAUCACCCAUGUAUGAGGUGGAGGUUGAGGUGGAGGGUAGAAGGUCAGGUGG [JR_Exclusion3_Sub012] (puzzle: Exclusion 3) |  |  | 26.8 nM |  |
| AAAUGCAAGCAAAGAUUCUACAUGAGGAUCACCCAUGUGCUCGUCUUAUAAAGUACUAUCACGAAAGUGAUAGUACA [Sensor 3, v1 - 34] (puzzle: Sensor v3, turn-off variant 1) |  |  | 88.3 nM | apparent KD of MS2 coat protein [3]: 18.2 nM; apparent KD of MS2 coat protein [4]: 17.6 nM |
| ACAUGAGGAUCACCCAUGUCGACGAAAAGGCUCAUGUAGAGUGAGGAUAUGUGAGACGAACGAGAACAGAAGGCACAAGACAGG [Deportation 4 - Jieux - Exclusion NG 3] (Eterna round: R96, puzzle: Exclusion NG 3) | 85.8 nM | 52.3 nM |  | apparent KD of MS2 coat protein [2]: 58.9 nM |
| UUGUGCACGCUGCGGUCCUACAUGAGGAUCACCCAUGUGGUCUGGUGGCGUGGGUCGCCGGACUUGGCUCGUCUUGG [salish99_S_TOV1_R5_026] (Eterna round: R97, puzzle: Sensor, turn-off variant 1) | 16.9 nM | 16.9 nM |  |  |
| GGAGGAAAGAUAGGAUAUUCGAGGAAGGUGGUGAUAGAGACAUGAGGAUCACCCAUGUAAGGAGGGAAGAAGGGUCGAGGAGGA [AK ExNG2-V2-7] (Eterna round: R96, puzzle: Exclusion NG 2) | 411 nM | 142 nM |  | apparent KD of MS2 coat protein [2]: 193 nM |
| UUGUUACAUGAGGAUCACCCAUGUGAGGAUAUGGUUCAGUAAUGUAAUGUAAAGUAAUCCAGAAGGCACAUGUU [1st #26] (Eterna round: R97, puzzle: Exclusion 1) | 1290 nM | 756 nM |  |  |
